This is an account of results in article PMC3292765 (2012).

This assay has as its target Rac1 (Homo sapiens, UniProt P63000). In words: microscale thermophoresis.

B1: p67phox 1-212 (protein)
chain: MSLVEAISLWNEGVLAADKKDWKGALDAFSAVQDPHSRICFNIGCMYTILKNMTEAEKAFTRSINRDKHLAVAYFQRGMLYYQTEKYDLAIKDLKEALIQLRGNQLIDYKILGLQFKLFACEVLYNIAFMYAKKEEWKKAEEQLALATSMKSEPRHSKIDKAMECVWKQKLYEPVVIPVGKLFRPNERQVAQLAKKDYLGKATVVASVVDQD
As a reminder, the Kd is the free concentration of one partner at which half of the binding sites on the other are occupied at equilibrium, for simple one-to-one binding. On to B1, for which the equilibrium dissociation constant (Kd) was about 0.04 µM.
